Patent US20230312654A1

What was measured:
[1] = biological target: UFV180846 (influenza B virus B/Brisbane/60/08) (UniProt P22092)
[2] = biological target: UFV180284 (influenza B virus B/Brisbane/60/08) (UniProt P22092)
[3] = biological target: UFV180137 (influenza B virus B/Brisbane/60/08) (UniProt P22092)
[4] = biological target: UFV180131 (influenza B virus B/Brisbane/60/08) (UniProt P22092)
[5] = biological target: UFV180251 (influenza B virus B/Brisbane/60/08) (UniProt P22092)

In the case of monoclonal antibody CR8071, the EC50 [1] is reported as under 4.6 nM.
In the case of monoclonal antibody CR9114, the EC50 [2] is reported as under 2.6 nM, the EC50 [3] is reported as under 2.6 nM and the EC50 [4] is reported as under 2.6 nM. For the same substance, the EC50 [1] was under 4.6 nM and the EC50 [5] was under 2.6 nM.
